This passage reports stoichiometry N results from paper doi:10.1101/706143.

Assay [1] addresses Cas7 (V. cholerae Type I-F variant CRISPR-Cas system) (V. cholerae). In words: cryo-EM structure.
For assay [2], the target named is TniQ (transposition protein of the Vibrio cholerae Tn6677 transposon) (V. cholerae). Nature of the assay: cryo-EM structure.

A word on the stoichiometry N: it is the number of molecules, sites or subunits per partner or assembly. “Cas7 (V. cholerae Type I-F variant CRISPR-Cas system) (natural protein)” showed a stoichiometry N in assay [1] of 6.

“TniQ (transposition protein of the Vibrio cholerae Tn6677 transposon) (natural protein)” showed a stoichiometry N in assay [2] of 2.
